Test [1] concerns the target T1, SARS-CoV-2 spike protein receptor binding domain (RBD), monomeric (SARS-CoV-2), P0DTC2.
Test [2] concerns the target T1, SARS-CoV-2 spike protein receptor …. This is another data set of the same source.

B1: DNA-LCB (designed binder)
chain: CDKEWILQKIYEIMRLLDELGHAEASMRVSDLIYEFMKKGDERLLEEAERLLEEVER
modifications: not checked
Turning to B1, in test [1], the protein coverage was 71.6%. Besides, in test [2], the Fluorescence (average) was found to be 2.08e+07.

(Values after patent US20240408194A1, “DNA ORIGAMI SUBUNIT VACCINE FOR PREVENTION OF SARS-CoV-2 VARIANT INFECTION” (priority 2021, published 2024).)
